Earlier results on 1 substance are cited in article PMC11695704.

For the data set, the target named is Clr-b (Mus musculus) (UniProt Q91V08).
UniProt Q91V08, sequence (Q91V08 whole entry): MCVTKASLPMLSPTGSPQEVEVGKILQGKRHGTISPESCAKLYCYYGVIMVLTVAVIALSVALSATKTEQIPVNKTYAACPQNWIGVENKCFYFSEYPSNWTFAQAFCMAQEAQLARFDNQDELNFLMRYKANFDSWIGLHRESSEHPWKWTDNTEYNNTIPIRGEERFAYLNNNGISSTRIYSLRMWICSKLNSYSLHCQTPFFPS

Take NKR-P1B (from UniProt P27812): the Kd (in general, the concentration at which binding is half-saturated) was > 500 µM.
